{"source": "paper PMC3935945", "about": "“Insight into Highly Conserved H1 Subtype-Specific Epitopes in Influenza Virus Hemagglutinin” (PLoS ONE, 2014)", "binders": {"B1": {"name": "Fab fragment from H1-specific monoclonal antibody GC0587 (Fab, V domains shown)", "VH": "VKLQQSGGGVVQPGGSLRLSCAASGFTFSDYDMSWIRQAPGKGLEWVSGILGGSERSYYRDSVKGRFTISRDNSRKTLYLQMNSLRAEDTAVYYCARHGSPGYTLYAWDYWGQGTMVTVSS", "VL": "DIQMTQSPASLAVSPGQRATITCRASESVSNYGINFINWFQQKPGQPPKLLIYTASNKGTGVPARFSGSGSGTDFTLTINPVEAEDTANYFCQQTKEVPYTFGGGTKLEIK", "notes": "also called Fab0587"}}, "molecular_target": "T1, recombinant hemagglutinin (HA) of 2009 pandemic virus A/Korea/01/2009 (KR01) (Influenza A virus A/Korea/01/2009 (H1N1), strain)", "T1 construct": "also called KR01 HA; H1N1 HA", "test": "crystal structure", "settings": "both partners purified", "data": [{"binder": "B1", "values": [{"measurement": "binding result", "result": "binds"}]}]}
